IntAct's records for PubMed 11734542

B1: Protein phosphatase EYA1 (Mus musculus), P97767 (parent)
chain: MEMQDLTSPHSRLSGSSESPSGPKLDSSHINSTSMTPNGTEVKTEPMSSSEIASTAADGSLDSFSGSALGSSSFSPRPAHPFSPPQIYPSKSYPHILPTPSSQTMAAYGQTQFTTGMQQATAYATYPQPGQPYGISSYGALWAGIKTESGLSQSQSPGQTGFLSYGTSFGTPQPGQAPYSYQMQGSSFTTSSGLYSGNNSLTNSSGFNSSQQDYPSYPGFGQGQYAQYYNSSPYPAHYMTSSNTSPTTPSTNATYQLQEPPSGVTSQAVTDPTAEYSTIHSPSTPIKETDSERLRRGSDGKSRGRGRRNNNPSPPPDSDLERVFIWDLDETIIVFHSLLTGSYANRYGRDPPTSVSLGLRMEEMIFNLADTHLFFNDLEECDQVHIDDVSSDDNGQDLSTYNFGTDGFPAAATSANLCLATGVRGGVDWMRKLAFRYRRVKEIYNTYKNNVGGLLGPAKREAWLQLRAEIEALTDSWLTLALKALSLIHSRTNCVNILVTTTQLIPALAKVLLYGLGIVFPIENIYSATKIGKESCFERIIQRFGRKVVYVVIGDGVEEEQGAKKHAMPFWRVSSHSDLMALHHALELEYL
partner: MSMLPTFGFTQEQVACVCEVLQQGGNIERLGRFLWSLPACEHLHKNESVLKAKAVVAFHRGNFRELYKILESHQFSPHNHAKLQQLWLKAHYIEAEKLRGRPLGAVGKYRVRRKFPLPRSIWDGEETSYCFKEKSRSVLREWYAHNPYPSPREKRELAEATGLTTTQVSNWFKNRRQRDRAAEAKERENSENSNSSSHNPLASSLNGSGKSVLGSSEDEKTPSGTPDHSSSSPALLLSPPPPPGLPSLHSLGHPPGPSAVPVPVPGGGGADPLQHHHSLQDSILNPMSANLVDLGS
B2: Protein phosphatase EYA1 (Mus musculus), P97767 (parent)
chain: B1 chain
partner: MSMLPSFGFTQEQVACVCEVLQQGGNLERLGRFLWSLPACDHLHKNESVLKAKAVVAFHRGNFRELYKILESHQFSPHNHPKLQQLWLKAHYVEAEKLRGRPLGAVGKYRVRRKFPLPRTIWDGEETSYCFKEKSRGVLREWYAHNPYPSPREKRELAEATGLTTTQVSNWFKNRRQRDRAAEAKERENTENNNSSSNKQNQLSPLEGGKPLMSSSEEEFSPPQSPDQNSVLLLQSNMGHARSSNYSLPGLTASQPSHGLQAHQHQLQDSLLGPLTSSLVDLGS

Variants of: B1
Conditions: with six2_mouse Six2, Q62232

| effect of a mutation on the interaction | Variant |
| --- | --- |
| decreasing interaction | MEMQDLTSPHSRLSGSSESPSGPKLDSSHINSTSMTPNGTEVKTEPMSSSEIASTAADGSLDSFSGSALGSSSFSPRPAHPFSPPQIYPSKSYPHILPTPSSQTMAAYGQTQFTTGMQQATAYATYPQPGQPYGISSYGALWAGIKTESGLSQSQSPGQTGFLSYGTSFGTPQPGQAPYSYQMQGSSFTTSSGLYSGNNSLTNSSGFNSSQQDYPSYPGFGQGQYAQYYNSSPYPAHYMTSSNTSPTTPSTNATYQLQEPPSGVTSQAVTDPTAEYSTIHSPSTPIKETDSERLRRGSDGKSRGRGRRNNNPSPPPDSDLERVFIWDLDETIIVFHSLLTGSYANRYGRDPPTSVSLGLRMEEMIFNLADTHLFFNDLEECDQVHIDDVSSDDNGQDLSTYNFGTDGFPAAATSANLCLATGVRGGVDWMRKLAFRYRRVKEIYNTYKNNVGGLLGPAKREAWLQLRAEIEALTDSWLTLALKALSLIHSRTNCVNILVTTTQRIPALAKVLLYGLGIVFPIENIYSATKIGKESCFERIIQRFGRKVVYVVIGDGVEEEQGAKKHAMPFWRVSSHSDLMALHHALELEYL [L504R] |
| decreasing interaction | MEMQDLTSPHSRLSGSSESPSGPKLDSSHINSTSMTPNGTEVKTEPMSSSEIASTAADGSLDSFSGSALGSSSFSPRPAHPFSPPQIYPSKSYPHILPTPSSQTMAAYGQTQFTTGMQQATAYATYPQPGQPYGISSYGALWAGIKTESGLSQSQSPGQTGFLSYGTSFGTPQPGQAPYSYQMQGSSFTTSSGLYSGNNSLTNSSGFNSSQQDYPSYPGFGQGQYAQYYNSSPYPAHYMTSSNTSPTTPSTNATYQLQEPPSGVTSQAVTDPTAEYSTIHSPSTPIKETDSERLRRGSDGKSRGRGRRNNNPSPPPDSDLERVFIWDLDKTIIVFHSLLTGSYANRYGRDPPTSVSLGLRMEEMIFNLADTHLFFNDLEECDQVHIDDVSSDDNGQDLSTYNFGTDGFPAAATSANLCLATGVRGGVDWMRKLAFRYRRVKEIYNTYKNNVGGLLGPAKREAWLQLRAEIEALTDSWLTLALKALSLIHSRTNCVNILVTTTQLIPALAKVLLYGLGIVFPIENIYSATKIGKESCFERIIQRFGRKVVYVVIGDGVEEEQGAKKHAMPFWRVSSHSDLMALHHALELEYL [E330K] |
| decreasing interaction | MEMQDLTSPHSRLSGSSESPSGPKLDSSHINSTSMTPNGTEVKTEPMSSSEIASTAADGSLDSFSGSALGSSSFSPRPAHPFSPPQIYPSKSYPHILPTPSSQTMAAYGQTQFTTGMQQATAYATYPQPGQPYGISSYGALWAGIKTESGLSQSQSPGQTGFLSYGTSFGTPQPGQAPYSYQMQGSSFTTSSGLYSGNNSLTNSSGFNSSQQDYPSYPGFGQGQYAQYYNSSPYPAHYMTSSNTSPTTPSTNATYQLQEPPSGVTSQAVTDPTAEYSTIHSPSTPIKETDSERLRRGSDGKSRGRGRRNNNPSPPPDSDLERVFIWDLDETIIVFHSLLTGSYANRYGRDPPTSVSLGLRMEEMIFNLADTHLFFNDLEECDQVHIDDVSSDDNGQDLSTYNFGTDGFPAAATSANLCLATGVRSGVDWMRKLAFRYRRVKEIYNTYKNNVGGLLGPAKREAWLQLRAEIEALTDSWLTLALKALSLIHSRTNCVNILVTTTQLIPALAKVLLYGLGIVFPIENIYSATKIGKESCFERIIQRFGRKVVYVVIGDGVEEEQGAKKHAMPFWRVSSHSDLMALHHALELEYL [G425S] |
| decreasing interaction | MEMQDLTSPHSRLSGSSESPSGPKLDSSHINSTSMTPNGTEVKTEPMSSSEIASTAADGSLDSFSGSALGSSSFSPRPAHPFSPPQIYPSKSYPHILPTPSSQTMAAYGQTQFTTGMQQATAYATYPQPGQPYGISSYGALWAGIKTESGLSQSQSPGQTGFLSYGTSFGTPQPGQAPYSYQMQGSSFTTSSGLYSGNNSLTNSSGFNSSQQDYPSYPGFGQGQYAQYYNSSPYPAHYMTSSNTSPTTPSTNATYQLQEPPSGVTSQAVTDPTAEYSTIHSPSTPIKETDSERLRRGSDGKSRGRGRRNNNPSPPPDSDLERVFIWDLDETIIVFHSLLTGSYANRYGRDPPTSVSLGLRMEEMIFNLADTHLFFNDLEECDQVHIDDVSSDDNGQDLSTYNFGTDGFPAAATSANLCLATGVRGGVDWMRKLAFRYRRVKEIYNTYKNNVGGLLGPAKREAWLQLRAEIEALTDSWLTLALKALPLIHSRTNCVNILVTTTQLIPALAKVLLYGLGIVFPIENIYSATKIGKESCFERIIQRFGRKVVYVVIGDGVEEEQGAKKHAMPFWRVSSHSDLMALHHALELEYL [S486P] |

Variants of: B2
Conditions: with six1_mouse Six1, Q62231

| effect of a mutation on the interaction | Variant |
| --- | --- |
| disrupting interaction | MEMQDLTSPHSRLSGSSESPSGPKLDSSHINSTSMTPNGTEVKTEPMSSSEIASTAADGSLDSFSGSALGSSSFSPRPAHPFSPPQIYPSKSYPHILPTPSSQTMAAYGQTQFTTGMQQATAYATYPQPGQPYGISSYGALWAGIKTESGLSQSQSPGQTGFLSYGTSFGTPQPGQAPYSYQMQGSSFTTSSGLYSGNNSLTNSSGFNSSQQDYPSYPGFGQGQYAQYYNSSPYPAHYMTSSNTSPTTPSTNATYQLQEPPSGVTSQAVTDPTAEYSTIHSPSTPIKETDSERLRRGSDGKSRGRGRRNNNPSPPPDSDLERVFIWDLDKTIIVFHSLLTGSYANRYGRDPPTSVSLGLRMEEMIFNLADTHLFFNDLEECDQVHIDDVSSDDNGQDLSTYNFGTDGFPAAATSANLCLATGVRGGVDWMRKLAFRYRRVKEIYNTYKNNVGGLLGPAKREAWLQLRAEIEALTDSWLTLALKALSLIHSRTNCVNILVTTTQLIPALAKVLLYGLGIVFPIENIYSATKIGKESCFERIIQRFGRKVVYVVIGDGVEEEQGAKKHAMPFWRVSSHSDLMALHHALELEYL [E330K] |
| disrupting interaction | MEMQDLTSPHSRLSGSSESPSGPKLDSSHINSTSMTPNGTEVKTEPMSSSEIASTAADGSLDSFSGSALGSSSFSPRPAHPFSPPQIYPSKSYPHILPTPSSQTMAAYGQTQFTTGMQQATAYATYPQPGQPYGISSYGALWAGIKTESGLSQSQSPGQTGFLSYGTSFGTPQPGQAPYSYQMQGSSFTTSSGLYSGNNSLTNSSGFNSSQQDYPSYPGFGQGQYAQYYNSSPYPAHYMTSSNTSPTTPSTNATYQLQEPPSGVTSQAVTDPTAEYSTIHSPSTPIKETDSERLRRGSDGKSRGRGRRNNNPSPPPDSDLERVFIWDLDETIIVFHSLLTGSYANRYGRDPPTSVSLGLRMEEMIFNLADTHLFFNDLEECDQVHIDDVSSDDNGQDLSTYNFGTDGFPAAATSANLCLATGVRGGVDWMRKLAFRYRRVKEIYNTYKNNVGGLLGPAKREAWLQLRAEIEALTDSWLTLALKALPLIHSRTNCVNILVTTTQLIPALAKVLLYGLGIVFPIENIYSATKIGKESCFERIIQRFGRKVVYVVIGDGVEEEQGAKKHAMPFWRVSSHSDLMALHHALELEYL [S486P] |
| disrupting interaction | MEMQDLTSPHSRLSGSSESPSGPKLDSSHINSTSMTPNGTEVKTEPMSSSEIASTAADGSLDSFSGSALGSSSFSPRPAHPFSPPQIYPSKSYPHILPTPSSQTMAAYGQTQFTTGMQQATAYATYPQPGQPYGISSYGALWAGIKTESGLSQSQSPGQTGFLSYGTSFGTPQPGQAPYSYQMQGSSFTTSSGLYSGNNSLTNSSGFNSSQQDYPSYPGFGQGQYAQYYNSSPYPAHYMTSSNTSPTTPSTNATYQLQEPPSGVTSQAVTDPTAEYSTIHSPSTPIKETDSERLRRGSDGKSRGRGRRNNNPSPPPDSDLERVFIWDLDETIIVFHSLLTGSYANRYGRDPPTSVSLGLRMEEMIFNLADTHLFFNDLEECDQVHIDDVSSDDNGQDLSTYNFGTDGFPAAATSANLCLATGVRGGVDWMRKLAFRYRRVKEIYNTYKNNVGGLLGPAKREAWLQLRAEIEALTDSWLTLALKALSLIHSRTNCVNILVTTTQRIPALAKVLLYGLGIVFPIENIYSATKIGKESCFERIIQRFGRKVVYVVIGDGVEEEQGAKKHAMPFWRVSSHSDLMALHHALELEYL [L504R] |

Variants of: B2
Conditions: with six1_mouse Six1, Q62231
Remark: another data set of the same source

| effect of a mutation on the interaction | Variant |
| --- | --- |
| decreasing interaction | MEMQDLTSPHSRLSGSSESPSGPKLDSSHINSTSMTPNGTEVKTEPMSSSEIASTAADGSLDSFSGSALGSSSFSPRPAHPFSPPQIYPSKSYPHILPTPSSQTMAAYGQTQFTTGMQQATAYATYPQPGQPYGISSYGALWAGIKTESGLSQSQSPGQTGFLSYGTSFGTPQPGQAPYSYQMQGSSFTTSSGLYSGNNSLTNSSGFNSSQQDYPSYPGFGQGQYAQYYNSSPYPAHYMTSSNTSPTTPSTNATYQLQEPPSGVTSQAVTDPTAEYSTIHSPSTPIKETDSERLRRGSDGKSRGRGRRNNNPSPPPDSDLERVFIWDLDKTIIVFHSLLTGSYANRYGRDPPTSVSLGLRMEEMIFNLADTHLFFNDLEECDQVHIDDVSSDDNGQDLSTYNFGTDGFPAAATSANLCLATGVRGGVDWMRKLAFRYRRVKEIYNTYKNNVGGLLGPAKREAWLQLRAEIEALTDSWLTLALKALSLIHSRTNCVNILVTTTQLIPALAKVLLYGLGIVFPIENIYSATKIGKESCFERIIQRFGRKVVYVVIGDGVEEEQGAKKHAMPFWRVSSHSDLMALHHALELEYL [E330K] |
| decreasing interaction | MEMQDLTSPHSRLSGSSESPSGPKLDSSHINSTSMTPNGTEVKTEPMSSSEIASTAADGSLDSFSGSALGSSSFSPRPAHPFSPPQIYPSKSYPHILPTPSSQTMAAYGQTQFTTGMQQATAYATYPQPGQPYGISSYGALWAGIKTESGLSQSQSPGQTGFLSYGTSFGTPQPGQAPYSYQMQGSSFTTSSGLYSGNNSLTNSSGFNSSQQDYPSYPGFGQGQYAQYYNSSPYPAHYMTSSNTSPTTPSTNATYQLQEPPSGVTSQAVTDPTAEYSTIHSPSTPIKETDSERLRRGSDGKSRGRGRRNNNPSPPPDSDLERVFIWDLDETIIVFHSLLTGSYANRYGRDPPTSVSLGLRMEEMIFNLADTHLFFNDLEECDQVHIDDVSSDDNGQDLSTYNFGTDGFPAAATSANLCLATGVRGGVDWMRKLAFRYRRVKEIYNTYKNNVGGLLGPAKREAWLQLRAEIEALTDSWLTLALKALPLIHSRTNCVNILVTTTQLIPALAKVLLYGLGIVFPIENIYSATKIGKESCFERIIQRFGRKVVYVVIGDGVEEEQGAKKHAMPFWRVSSHSDLMALHHALELEYL [S486P] |
| decreasing interaction | MEMQDLTSPHSRLSGSSESPSGPKLDSSHINSTSMTPNGTEVKTEPMSSSEIASTAADGSLDSFSGSALGSSSFSPRPAHPFSPPQIYPSKSYPHILPTPSSQTMAAYGQTQFTTGMQQATAYATYPQPGQPYGISSYGALWAGIKTESGLSQSQSPGQTGFLSYGTSFGTPQPGQAPYSYQMQGSSFTTSSGLYSGNNSLTNSSGFNSSQQDYPSYPGFGQGQYAQYYNSSPYPAHYMTSSNTSPTTPSTNATYQLQEPPSGVTSQAVTDPTAEYSTIHSPSTPIKETDSERLRRGSDGKSRGRGRRNNNPSPPPDSDLERVFIWDLDETIIVFHSLLTGSYANRYGRDPPTSVSLGLRMEEMIFNLADTHLFFNDLEECDQVHIDDVSSDDNGQDLSTYNFGTDGFPAAATSANLCLATGVRGGVDWMRKLAFRYRRVKEIYNTYKNNVGGLLGPAKREAWLQLRAEIEALTDSWLTLALKALSLIHSRTNCVNILVTTTQRIPALAKVLLYGLGIVFPIENIYSATKIGKESCFERIIQRFGRKVVYVVIGDGVEEEQGAKKHAMPFWRVSSHSDLMALHHALELEYL [L504R] |
